Experimental data reported in the supplement of paper PMC12042874.
± gives the uncertainty stated by the source.

Assay: amyloid nucleation score (Sup35N fusion, yeast selection) (log enrichment); library NNK1; higher = more nucleation; inactive = no reads after selection
How it was run: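 Sup35N fusions to peptides of 20 random codons were expressed in psi-negative yeast, induced 24 hours with 100 μM copper sulfate, and grown 7 days at 30°C on medium lacking adenine and uracil. Input and output plasmid inserts were sequenced by Illumina. The nucleation score is the DiMSum log enrichment of output over input reads, centred on the mode score of non-aggregating sequences. Sequences with under 100 input reads were excluded.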

| Substance | amyloid nucleation score |
| --- | --- |
| ELKQIKVGRSLWRMVRRMGD | 1.37 ± 0.36 |
| VRVWTYLAWVQYLPYQMGLF | inactive |
| IARAVSSESASVWVKDT | -1.62 ± 2.7 |
| FVRSFYSDKLWQIFGWVVGS | -0.753 ± 0.51 |
| ECIIYPIVMHVFVQNMM | 1.56 ± 0.28 |
| RGEKLQEVMSVGYWIGFFNN | 0.907 ± 0.27 |
| SFDRCCRGFAWISYGEQTAY | 0.219 ± 0.53 |
| HVYSSVLCQQD | 0.717 ± 0.65 |
| FTFSTGLLFYMFLYGWVH | -0.62 ± 0.34 |
| YANCL | 0.517 ± 0.44 |
| GPPRN | 0.681 ± 0.65 |
| NLSQSLVHRVSSVEYTLRLL | inactive |
| RMHYIG | 0.106 ± 0.43 |
| FCTLALHNTI | 1.24 ± 0.64 |
| CLTMWIV | -0.285 ± 0.68 |
| VYGSPPNMWNVV | 0.066 ± 0.79 |
| YRLRGGP | -0.25 ± 1.2 |
| LVSLRSIRSRRWCSRQFWSM | -0.111 ± 0.5 |
| QGINLVY | -0.342 ± 0.38 |
| GVDMRYFGPYAGYADYSKSR | -0.846 ± 0.44 |
| AERVCTFIL | -1.25 ± 1.1 |
| VGYHFMYSMSAFVASWRSWG | -0.482 ± 0.88 |

| Substance | amyloid nucleation score |
| --- | --- |
| VIMLVNDAFVGI | -0.543 ± 0.26 |
| FDVYFSVPFFTLLYNDPKWF | 2.35 ± 0.12 |
| LVGVWMDCLMKPKPIARTLP | inactive |
| NVANVV | -0.013 ± 1.2 |
| RFVRYQSQHFHKLNSWWGCL | 0.135 ± 0.39 |
| LIYESNREHYYMRSRSAVTR | -0.825 ± 0.99 |
| SSTILQLCSPNRRLRSTKLG | 1.97 ± 0.7 |
| MIKYYYGSGTLS | -0.429 ± 0.34 |
| DWRLNLVYKMSA | 0.734 ± 0.75 |
| WLGSYIVFLIRMETYDWWIV | -0.114 ± 0.38 |
| NDTMWMSSGLSPCVSSPSLG | -0.252 ± 1.4 |
| SRVISLPVLKI | -0.302 ± 0.9 |
| STIMMF | 0.289 ± 0.52 |
| NFMIMKSCDRSSLCHFMSYC | 7.436 ± 0.069 |
| LRAYSVAFYRLPHVSN | 1.35 ± 0.79 |
| DCAKTANDSDVLFFDTSGAR | 0.504 ± 0.4 |
| YMGPFVPFSRTTAYNVSTFK | 0.42 ± 0.79 |
| EHGNVACRWDTHISLVWCHF | 7.304 ± 0.057 |
| HIIQNLV | 0.25 ± 0.77 |
| QGLNNMHSGVVLKMLT | 1.22 ± 0.54 |
| GGSVRRDQMVYREDMQSNST | -0.746 ± 0.93 |
| TMTFPKVLWPCGLVRNFCST | -0.294 ± 0.67 |

| Substance | amyloid nucleation score |
| --- | --- |
| FRGRDSCGHH | 0.101 ± 0.44 |
| GGYMGL | -0.158 ± 0.35 |
| FLKDIYVYVTLVCHLRSLAS | -0.589 ± 0.49 |
| LCDFVLNIEREVNVYSFIKL | 2.34 ± 0.13 |
| LFVRFKTYVLP | 0.663 ± 0.3 |
| PYVFPVRYYSTILWYAIYVR | 0.558 ± 0.28 |
| SLSFSCSVKV | -0.149 ± 0.54 |
| CNMVLFRVKYY | 2.67 ± 0.1 |
| SGTESEFKVKMNKLQSSYMG | -0.022 ± 0.45 |
| YSYGCCSMLNVVS | 1.93 ± 0.2 |
| TVITFRLAT | 1.69 ± 0.26 |
| VRGYGGVC | -0.296 ± 0.3 |
| HCGGNSRSVN | -1.11 ± 0.83 |
| VRMIFVQCWKCTESNFCERN | -0.174 ± 0.66 |
| DLKALCCDRMKVLGFVRSPG | 1.18 ± 0.42 |
| MITIRVLEQDHLSLSLALSY | -0.597 ± 0.57 |
| NLRYYQFRSRSPTAWGHTMF | -0.744 ± 0.58 |
| RDFWVSRTALMGGYWCWL | -0.175 ± 0.35 |
| RSYSNPLSSVSLSNYSFGVY | -0.353 ± 0.36 |
| SCDMAEFSEDLTLCLLNHK | -0.651 ± 1.7 |
| QHCRA | 0.639 ± 0.88 |
| AMCLV | -0.373 ± 0.88 |

| Substance | amyloid nucleation score |
| --- | --- |
| GSLAW | -0.972 ± 0.94 |
| RMMVPYNHFYKSLWSGSTAY | 0.959 ± 0.68 |
| VRTSVCCTRALAMLRSLWVT | -0.625 ± 0.73 |
| KLSVGYRFWVLDSDFIVDDY | 0.16 ± 0.23 |
| LKQSYKKPY | inactive |
| SNLLGSMFLLCHQIKHRPEI | -0.764 ± 0.34 |
| CLSCSNICFFIHSVNWDVFS | 5.27 ± 0.11 |
| ANMHRVKAYCHIFGLSHETE | -0.775 ± 0.73 |
| PWNLIISSYASYYTCKVLVS | -0.563 ± 1.1 |
| NLRIGFVEQLSSGVLDGPDD | 0.471 ± 0.97 |
| FCFLGRCEQHYYLEVHNGSE | -0.1 ± 0.49 |
| YPNHGLLRQ | 0.166 ± 0.43 |
| AGMDVDSLYNRYGYGLEVG | -0.512 ± 0.81 |
| LNGVNLRGFTRWLVGCGDVD | 0.141 ± 0.65 |
| IVWYELIESNVLKSKGCVVN | -0.322 ± 1.1 |
| DFCVQNFMMLKFKLCYRRSL | -0.134 ± 1.2 |
| SWLDLNLIDHQAFAFSSFGQ | 0.183 ± 0.3 |
| NTLTMIHLIVLTELSLFK | 0.297 ± 0.26 |
| SIDVSDSSRDGYSDMWSKCK | -0.164 ± 0.24 |
| ARMVVCHPAGFGGAWPSRWC | -0.105 ± 0.93 |
| FLWDNAVSKVKFITFVWPHI | 0.86 ± 0.32 |
